In one data set the test system is hTERT-HMEC. Kind of data set: percentage of EdU-negative (G0-arrested) nuclei per well, 72 h; higher = more G0 arrest. The settings on record: reference: sequence is the full UniProt precursor, the tested protein was the secreted form or ectodomain.
The test system of another data set is MCF7. The description is as above. The following applies: reference: sequence is the full UniProt precursor, the tested protein was the secreted form or ectodomain.
Where [1] appears, read: protein concentration 0.01392 µM.
Setting [2] is: protein concentration 0.1392 µM.
The mark [3] stands for this setting: protein concentration 0.0055 µM.
Where [4] appears, read: protein concentration 0.0225 µM.

Data on 3 sequences can be found in the supplement of paper PMC11316812.

± gives the standard deviation of the averaged measurements.
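Also: secreted proteins added to cultured cells, EdU pulse at the end, nuclei found by Hoechst imaging, EdU status from nuclear versus surrounding ring intensity ratio, PBS as neutral control.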

As for “MRLKNLTFIIILIISGELYAEEKPCGFPHVENGRIAQYYYTFKSFYFPMSIDKKLSFFCLAGYTTESGRQEEQTTCTTEGWSPEPRCFKKCTKPDLSNGYISDVKLLYKIQENMRYGCASGYKTTGGKDEEVVQCLSDGWSSQPTCRKEHETCLAPELYNGNYSTTQKTFKVKDKVQYECATGYYTAGGKKTEEVECLTYGWSLTPKCTKLKCSSLRLIENGYFHPVKQTYEEGDVVQFFCHENYYLSGSDLIQCYNFGWYPESPVCEGRRNRCPPPPLPINSKIQTHSTTYRHGEIVHIECELNFEIHGSAEIRCEDGKWTEPPKCIEGQEKVACEEPPFIENGAANLHSKIYYNGDKVTYACKSGYLLHGSNEITCNRGKWTLPPECVENNENCKHPPVVMNGAVADGILASYATGSSVEYRCNEYYLLRGSKISRCEQGKWSSPPVCLEPCTVNVDYMNRNNIEMKWKYEGKVLHGDLIDFVCKQGYDLSPLTPLSELSVQCNRGEVKYPLCTRKESKGMCTSPPLIKHGVIISSTVDTYENGSSVEYRCFDHHFLEGSREAYCLDGMWTTPPLCLEPCTLSFTEMEKNNLLLKWDFDNRPHILHGEYIEFICRGDTYPAELYITGSILRMQCDRGQLKYPRCIPRQSTLSYQEPLRT”, the “percentage of EdU-negative” value in the data set with hTERT-HMEC (setting [1]) worked out at 5.59 ± 0.28%; with hTERT-HMEC (setting [2]) it was 7.25 ± 1.1%; in the data set with MCF7 (setting [1]), 26.7 ± 0.98%; with MCF7 (setting [2]) it was 25.4 ± 0.69%.

Turning to “MRLLAKIICLMLWAICVAEDCNELPPRRNTEILTGSWSDQTYPEGTQAIYKCRPGYRSLGNVIMVCRKGEWVALNPLRKCQKRPCGHPGDTPFGTFTLTGGNVFEYGVKAVYTCNEGYQLLGEINYRECDTDGWTNDIPICEVVKCLPVTAPENGKIVSSAMEPDREYHFGQAVRFVCNSGYKIEGDEEMHCSDDGFWSKEKPKCVEISCKSPDVINGSPISQKIIYKENERFQYKCNMGYEYSERGDAVCTESGWRPLPSCEEKSCDNPYIPNGDYSPLRIKHRTGDEITYQCRNGFYPATRGNTAKCTSTGWIPAPRCTLKPCDYPDIKHGGLYHENMRRPYFPVAVGKYYSYYCDEHFETPSGSYWDHIHCTQDGWSPAVPCLRKCYFPYLENGYNQNYGRKFVQGKSIDVACHPGYALPKAQTTVTCMENGWSPTPRCIRVKTCSKSSIDIENGFISESQYTYALKEKAKYQCKLGYVTADGETSGSITCGKDGWSAQPTCIKSCDIPVFMNARTKNDFTWFKLNDTLDYECHDGYESNTGSTTGSIVCGYNGWSDLPICYERECELPKIDVHLVPDRKKDQYKVGEVLKFSCKPGFTIVGPNSVQCYHFGLSPDLPICKEQVQSCGPPPELLNGNVKEKTKEEYGHSEVVEYYCNPRFLMKGPNKIQCVDGEWTTLPVCIVEESTCGDIPELEHGWAQLSSPPYYYGDSVEFNCSESFTMIGHRSITCIHGVWTQLPQCVAIDKLKKCKSSNLIILEEHLKNKKEFDHNSNIRYRCRGKEGWIHTVCINGRWDPEVNCSMAQIQLCPPPPQIPNSHNMTTTLNYRDGEKVSVLCQENYLIQEGEEITCKDGRWQSIPLCVEKIPCSQPPQIEHGTINSSRSSQESYAHGTKLSYTCEGGFRISEENETTCYMGKWSSPPQCEGLPCKSPPEISHGVVAHMSDSYQYGEEVTYKCFEGFGIDGPAIAKCLGEKWSHPPSCIKTDCLSLPSFENAIPMGEKKDVYKAGEQVTYTCATYYKMDGASNVTCINSRWTGRPTCRDTSCVNPPTVQNAYIVSRQMSKYPSGERVRYQCRSPYEMFGDEEVMCLNGNWTEPPQCKDSTGKCGPPPPIDNGDITSFPLSVYAPASSVEYQCQNLYQLEGNKRITCRNGQWSEPPKCLHPCVISREIMENYNIALRWTAKQKLYSRTGESVEFVCKRGYRLSSRSHTLRTTCWDGKLEYPTCAKR”, the “percentage of EdU-negative” value in the data set with hTERT-HMEC (setting [3]) is 5.14 ± 0.38%; in the data set on hTERT-HMEC (protein concentration 0.055 µM), 7.65 ± 0.92%; in the data set on MCF7 (setting [3]) it was 25.1 ± 0.8%; in the data set with MCF7 (protein concentration 0.055 µM), 25.5 ± 2.4%.

For the sequence “MRLLCGLWLWLSLLKVLQAQTPTPLPLPPPMQSFQGNQFQGEWFVLGLAGNSFRPEHRALLNAFTATFELSDDGRFEVWNAMTRGQHCDTWSYVLIPAAQPGQFTVDHGVEPGADREETRVVDSDYTQFALMLSRRHTSRLAVLRISLLGRSWLLPPGTLDQFICLGRAQGLSDDNIVFPDVTGWSPQASVC [Q6JVE5]”, the “percentage of EdU-negative” value in the data set with hTERT-HMEC (setting [4]) is 4.84 ± 0.32%; in the data set on hTERT-HMEC (protein concentration 0.225 µM) it was 5.1 ± 0.82%; in the data set on MCF7 (setting [4]), 28.3 ± 4%; in the data set with MCF7 (protein concentration 0.225 µM), 32.23 ± 0.31%.
